# Assay results as given in patent US20060253917A1 (published 2006).
# Ends that are not written are not given here.
# T1: OsCYCOS2 aa 50-233 (Oryza sativa, UniProt A2YH60 50-233)
# T1 construct: bait, Gal4 DBD fusion; also called PN20257; O. sativa Cyclin OsCYCOS2
# T1 chain: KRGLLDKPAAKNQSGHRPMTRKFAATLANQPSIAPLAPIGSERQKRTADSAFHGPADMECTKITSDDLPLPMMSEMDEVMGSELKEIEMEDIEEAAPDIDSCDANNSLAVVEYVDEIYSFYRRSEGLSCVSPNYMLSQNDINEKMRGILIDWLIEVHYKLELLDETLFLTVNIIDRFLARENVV
# T2: OsMADS6 aa 50-200 (Oryza sativa, UniProt Q6EU39 50-200)
# T2 construct: bait, Gal4 DBD fusion; also called PN20233
# T2 sequence: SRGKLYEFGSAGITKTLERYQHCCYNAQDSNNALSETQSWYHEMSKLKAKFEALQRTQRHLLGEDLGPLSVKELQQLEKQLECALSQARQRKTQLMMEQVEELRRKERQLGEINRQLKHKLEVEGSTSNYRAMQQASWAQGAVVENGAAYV
# Target: T3, OsE2F1 aa 100-250 (Oryza sativa)
# T3 construct: bait, Gal4 DBD fusion; also called PN19758; O. sativa E2F Homolog
# Experiment: Y2H; output trait library
# Procedure, shortened: (§1)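 Using an automated, high-throughput yeast two-hybrid assay provided by Myriad Genetics Inc. (Salt Lake City, Utah), protein-protein interactions were detected. Against either the input trait or the output trait rice prey library, a bait clone encoding a defined amino-acid fragment of a rice protein was screened. The encoding sequences of the prey clones that were retrieved were then compared against databases by BLAST to identify the interacting proteins.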
# T3 sequence (chain, as listed by the source): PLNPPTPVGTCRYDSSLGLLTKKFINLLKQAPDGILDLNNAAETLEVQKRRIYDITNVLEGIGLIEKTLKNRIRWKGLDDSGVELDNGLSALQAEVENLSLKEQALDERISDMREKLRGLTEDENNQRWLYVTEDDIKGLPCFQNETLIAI
row,binding result,Binder
1,binds,"OsPN26539 aa 194-346 (other, prey, AD fusion) TEIIGLKGRIDKKNAYLQELEDQFVGLQNLAQRNEQLYGSGNAPSGGVALPFILVQTRPHATVEVEISEDMQLVHFDFNSTPFELHDDSFVLKALGFSGKEPDDTQAWVGNGGECSTTPIYHQSPQVARPNGVRLPTSPPIPGILKGRVKHEH"
2,binds,"OsPN26539 aa 82-253 (other, prey, AD fusion) GPGTRATGPDKGGRGLRQFSMKVCEKVESKGRTTYNEVADELVAEFADPNNNFASPDPDNPNTPQFDEKNIRRRVYDALNVLMAMDIISKDKKEIQWKGLPRTSMSDVEELKTEIIGLKGRIDKKNAYLQELEDQFVGLQNLAQRNEQLYGSGNAPSGGVALPFILVQTRPH"
3,binds,"Os018989-4003 aa 9-179 (other, prey, AD fusion; also called PN21044; Hypothetical Protein 018989-4003, Similar to Triticum sp; DP Protein) AAAASAAPGLANLLIREGAGLPSRPERYPPFRPCTSDSFAPISREGDDIPPQKKSVSLRSGGGGNAAEREEGGANRNGKKEKTGAQRITGWGLREFSKIVSKKVEAKGRTTYNEVADEIFAELKSITQNGLEFDEKNIRRRVYDAFNVLIAIRVIAKDKKEIKWMGLTNYR"
4,binds,"Os018989-4003 aa 177-294 (other, prey, AD fusion; also called PN21044) NYRYEKIQKLEEVHKELITRIKNKKKLLQEIEKQFDDLQNITLRNQASQRPAESVNGILLPFLLIKTSRKARVEIEISEDSKFARFDFNGAPFTMHDDVSILEAIRRNKGRAGLSIHP"
5,binds,"OsPN26539 aa 66-346 (other, prey, AD fusion; also called Novel Protein PN26539, Probable DP) DDAPSSQPATSKKKKRGPGTRATGPDKGGRGLRQFSMKVCEKVESKGRTTYNEVADELVAEFADPNNNFASPDPDNPNTPQFDEKNIRRRVYDALNVLMAMDIISKDKKEIQWKGLPRTSMSDVEELKTEIIGLKGRIDKKNAYLQELEDQFVGLQNLAQRNEQLYGSGNAPSGGVALPFILVQTRPHATVEVEISEDMQLVHFDFNSTPFELHDDSFVLKALGFSGKEPDDTQAWVGNGGECSTTPIYHQSPQVARPNGVRLPTSPPIPGILKGRVKHEH"
6,binds,"RFEATTKSKLASLNEKLDILERKLEVLEVQVSSATTNPSVFN (other, not fully specified, prey, AD fusion; also called Novel Protein PN30852) [OsPN30852 aa 45-86]"

# Target: T1, OsCYCOS2 aa 50-233
# Experiment: Y2H; output trait library
# Procedure, shortened: as §1
row,Binder,binding result
1,"PN23136 aa 66-191 (other, prey, AD fusion; also called Hypothetical Protein BAA85200 Similar to Syntaxin Related Protein AtVam3p) LRERIHKTRQHITQLVKDTSEKLKQASEADHRVEVSASKKIADAKLAKDFQAVLKEFQKAQRLAVEREAAYAPFISQAGLPQSYNSSEVNNGADKLAEQRTALLESRRQELVFLDNEIVFNEAVIE",binds
2,"OsPN29882 aa 107-273 (other, prey, AD fusion; also called Novel Protein PN29882, Fragment, myosin heavy chain) ALMVERLEGSRQKLLMEIDSQSSEIEKLFEENSALSTSYQEAVAVTMQWENQVKDCLKQNEELRSHLEKLRLEQATLLKTSNTTIQPDGQNETSISFPPEFVTENLSLKDQLIKEQSRSEGLSAEIMKLSAELRKAVQAQNNLARLYRPVLRGIESNLMKMKQETYA",binds

# More lines, now with the values ahead:
row,binding result,Binder
1,binds,"OsPN29958 aa 3-304 (other, prey, AD fusion; also called Novel Protein PN29958, Fragment, centromere homologue) QNEVSALEKQTLSLANDCLQSNKLRMEENALSTQVLKTNMRSSGDQNTVRTVKDMELQKLHGTIKALQKVVTDTAVLLDQERLDFNANLQEARKQIEVLKLKEILDDDLIEMNYEQMLKDIQLDLIQISSGNKTGSLGQANKTVAQANEKMLDSHGIVGASSSHVRNDLRPPQSESFERDNYKRPPSELMVVKELSIDKQELPRSITTEPHQEWKNKVIERLASDAQRLNALQSSIQELKTNTEASEGLELESVRYQIREAEGFITQLIDSNGKLSKKAEEFTSEDGLDGDNIDLRSRHQRK"
2,binds,"OsPN29961 aa 10-215 (other, prey, AD fusion; also called Novel Protein PN29961, Fragment, Similar to A. thaliana Unknown Protein BAB02349) QKDGAPDEGSVGVPGRKTKETVTAADAIIDALDTAEEEVKRLDQHQEGQNNGNGTTFQPNVIMQGQSPSDYVLNVVSNVRPNDLEQALLSLPFSDALKIMSYLKEWSMVPLKVELVCRVCLVLLQTHHSQLTTTPSARSILTELKGILYSRVKECKDAIGFNLAAMDHIKELLAMRSDAPFRDARAKLMEIRQEQSRRSDRSDGAE"
3,binds,"OsPN29966 aa 8-216 (other, prey, AD fusion; also called Novel Protein PN29966, Fragment, myosin heavy chain) GTISAVEQESARQIASKDAEIAFLNEKLHQFRNSGLSLSEGRDKLYEEIYNLRQQLVTLSKSLLNSEWGLSVSHYNNFEGAEDESKHRGNEKSSKDGITKENGSKGSNEDIFIDPTVLKHMDRDELVAHFNKMMNQMKRQHDSTLQEKTEEIFRLKRENLKKEGPNPWHLRNNKEFELMRKKIWEVITKLDEVLVENKRTIRIKSDVFP"
4,binds,"OsPN29967 aa 16-174 (other, prey, AD fusion; also called Novel Protein PN29967, Fragment, unknown) PPTRRALTLTLTLTLLLSLAMSEPASPPPAMPEDAAPPQPQPEPAVPAGEEAAPSLERKEELLPVEEKISELDESQSQLMGRLRGLKEDLLNWRSSLDTQVTKYKSELSDIKTALNSEIEQLRSDFQELRTTLKKQQEDVSNSLKNLGLQDATDNDGNK"
5,binds,"OsPN29968 aa 12-113 (other, prey, AD fusion; also called Novel Protein PN29968, Similar to A. thaliana Unknown Protein BAB01990) LVNNEDVVAIKQMQHLILGRLQDSNAVLTHFNEYSEQCFAEVSNDFAGKTRLLKSMKADLDHIFLKLRGMKSRLAATYPDAFPTGAMAETMDQRPDLESPLD"

# Target: T2, OsMADS6 aa 50-200
# Experiment: Y2H; output trait library
# Procedure, shortened: as §1
row,binding result,Binder
1,binds,"OsBAA81880 aa 120-228 (other, prey, AD fusion; also called PN20837) IDELQQLEKNLEAGLHRVMLTKDQQFMEQISELQRKSSQLAEENMQLRNQVSQISPAEKQVVDTENFVTEGQSSESVMTALHSGSSQSQDNDDGSDVSLKLGLPCGAWK"
2,binds,"OsMADS5 aa 61-171 (other, prey, AD fusion; also called PN20770) SCMYKTLERYRSCNYNLNSCEASAALETELSNYQEYLKLKTRVEFLQTTQRNLLGEDLVPLSLKELEQLENQIEISLMNIRSSKNQQLLDQVFELKRKEQQLQDANKDLKR"
3,binds,"OsMADS15 aa 73-183 (other, prey, AD fusion; also called PN20842) YSYAEKALISAESESEGNWCHEYRKLKAKIETIQKCHKHLMGEDHESLNLKELQQLEQQLESSLKHIISRKSHLMLESISELQKKERSLQEENKALQKELVERQKNVRGQQ"
4,binds,"Os008339 aa 108-226 (other, prey, AD fusion; also called PN20847) ELAETSLRLRQMRGEELHRLNVEQLQELEKSLESGLGSVLKTKSKKILDEIDGLERKRMQLIEENLRLKEQVSRMSRMEEMQPGPDSEIVYEEGQSSESVTNASYPRPPPDNDYSSDTS"
5,binds,"OsMADS18 aa 64-249 (other, prey, AD fusion; also called PN20912) EGILERYQRYSFDERAVLEPNTEDQENWGDEYGILKSKLDALQKSQRQLLGEQLDTLTTKELQQLEHQLEYSLKHIRSKKNQLLFESISELQKKEKSLKNQNNVLQKLMETEKEKNNAIINTNREEQNGATPSTSSPTPVTAPDPIPTTNNSQSQPRGSGESEAQPSPAQAGNSKLPPWMLRTSHT"
6,binds,"OsFDRMADS8 aa 91-233 (other, prey, AD fusion; also called PN20698) KDDTLGLAKKLEALDESRRKILGENLEGCSIEELRGLEMKLEKSLHNIRLKKTELLERQIAKLKEKERTLLKDNENLRGKHRNLEAAALVANHMTTTTAPAAWPRDVPMTSSTAGAADAMDVETDLYIGLPGTERSSNRSETG"
7,binds,"OsMADS7 aa 95-259 (other, prey, AD fusion; also called PN21116) RESEQLKASRNEYLKLKARVENLQRTQRNLLGPDLDSLGIKELESLEKQLDSSLKHVRTTRTKHLVDQLTELQRKEQMVSEANRCLRRKLEESNHVRGQQVWEQGCNLIGYERQPEVQQPLHGGNGFFHPLDAAGEPTLQIGYPAEHHEAMNSACMNTYMPPWLP"
